# Source: the Human Domainome abundance scans (Beltran et al. 2025)
# ± gives the uncertainty stated by the source.
# B1: Formin-binding protein 4, residues 593 to 636; numbered along this chain, Q8N3X1 (parent)
# chain: EINATPKGWSCHWDRDHRRYFYVNEQSGESQWEFPDGEEEEEES
# Variants of: B1
# Assay: abundance fitness (aPCA) (normalised: wild type 0, dead -1); higher = more abundant; growth selection in yeast, the domain comes from the species named
# Conditions: Homo sapiens
row,Variant,abundance fitness
1,EIYATPKGWSCHWDRDHRRYFYVNEQSGESQWEFPDGEEEEEES [N3Y],-0.062 ± 0.24
2,EINATPKGWSCHWDRWHRRYFYVNEQSGESQWEFPDGEEEEEES [D16W],-0.218 ± 0.069
3,EINATPKGWSCHWDRAHRRYFYVNEQSGESQWEFPDGEEEEEES [D16A],-0.234 ± 0.063
4,EINATPKGWSCHWDRKHRRYFYVNEQSGESQWEFPDGEEEEEES [D16K],-0.169 ± 0.084
5,EINATPKGWSCHWDRDHRRYFYVNEQSGESQWEVPDGEEEEEES [F34V],-0.044 ± 0.07
6,EINATPKGWSCHWDRDHRRYFYVNEQSGESQWENPDGEEEEEES [F34N],-0.635 ± 0.13
7,EINATPKGWSCHWDRDHHRYFYVNEQSGESQWEFPDGEEEEEES [R18H],-0.11 ± 0.16
8,EINATPKGWSCHWDRDHRRYFYVNEQSGESQWEFPDGMEEEEES [E38M],0.058 ± 0.087
9,EINATPKGWSCHWTRDHRRYFYVNEQSGESQWEFPDGEEEEEES [D14T],-0.747 ± 0.13
10,EINATPKGWSCHWIRDHRRYFYVNEQSGESQWEFPDGEEEEEES [D14I],-0.799 ± 0.17
11,EINATPKGWSCHWDRDHRRYFYVNEQSGESQWEFPDGEIEEEES [E39I],-0.074 ± 0.2
12,EINATPKGWSCHWDRDHRRYFYVNEQSGESQWEFPDGEFEEEES [E39F],-0.155 ± 0.11
13,EINATPKGWSCHWDRDHRRYFYVNEQSGESQWEFPDGESEEEES [E39S],-0.056 ± 0.072
14,EINATPKGWSCHWDRDHRRYFGVNEQSGESQWEFPDGEEEEEES [Y22G],-0.544 ± 0.081
15,EINATPKGWSCHWDRDHRRYFAVNEQSGESQWEFPDGEEEEEES [Y22A],-0.572 ± 0.079
16,EINATPKGWSCHWDRDHRRYFWVNEQSGESQWEFPDGEEEEEES [Y22W],0.035 ± 0.08
17,EINATPKGWSCHWDRDHRRYFYVNEQSGESQWEFPDGEEEQEES [E41Q],0.056 ± 0.091
18,EINATPKGWSCHWDRDHRRYFYVNEQSGQSQWEFPDGEEEEEES [E29Q],-0.027 ± 0.079
19,EINATPKGWSCHWDRDHRRYFYVNEQSGESQWEFPDGEEEEEER [S44R],0.025 ± 0.3
20,EINATPKGWSCHWDRDHRRYFYVNEQSGESQWEFPDGEEEEEEQ [S44Q],0.247 ± 0.19

row,Variant,abundance fitness
1,EINATPKGWSCHWDRDHRRYFYVNEQSGESQWEFPDGEEEEEVS [E43V],0.046 ± 0.079
2,EINATPKGWSCHWDRDHRRYFYVNEQSGESQWEFPDGEEEEERS [E43R],-0.056 ± 0.077
3,EINATPKGWSCHWDRDHRRYFYVNEQSGESQWEFPDGEEEEENS [E43N],-0.08 ± 0.15
4,EINATPKGWSCHWDRDHRRYFYVNEQSGESQLEFPDGEEEEEES [W32L],-0.002 ± 0.07
5,EINATPKGWSCHWDRDHRRYFYVNEQSGESQMEFPDGEEEEEES [W32M],-0.243 ± 0.098
6,EINATPKGWSCHWDRDHRRYFYVNEQSGESQSEFPDGEEEEEES [W32S],-0.23 ± 0.066
7,EINATPKGWSCHWDRDHRRYFYVNQQSGESQWEFPDGEEEEEES [E25Q],0.006 ± 0.14
8,EINATPKGWSCHWDRDHRRYTYVNEQSGESQWEFPDGEEEEEES [F21T],-0.111 ± 0.16
9,EINATPKGWSCHWDRDHRRYAYVNEQSGESQWEFPDGEEEEEES [F21A],-0.179 ± 0.064
10,EINATPKGWSCHWDRDHRRYCYVNEQSGESQWEFPDGEEEEEES [F21C],0.058 ± 0.087
11,EINATPKGWSCHWDRDHRRYFYVNESSGESQWEFPDGEEEEEES [Q26S],-0.071 ± 0.081
12,EINATPKGWSCHWDYDHRRYFYVNEQSGESQWEFPDGEEEEEES [R15Y],-0.302 ± 0.2
13,EINATPKGWSCHWDTDHRRYFYVNEQSGESQWEFPDGEEEEEES [R15T],-0.162 ± 0.29
14,EINATGKGWSCHWDRDHRRYFYVNEQSGESQWEFPDGEEEEEES [P6G],-0.587 ± 0.24
15,EINAQPKGWSCHWDRDHRRYFYVNEQSGESQWEFPDGEEEEEES [T5Q],-0.358 ± 0.44
16,EINATPKGWSCHWDRDHRRYFYVNEQSGEEQWEFPDGEEEEEES [S30E],-0.04 ± 0.084
17,EINATPKGWSCHWDRDHRRYFYVNEQSGEMQWEFPDGEEEEEES [S30M],0.04 ± 0.17
18,EINATPKGWDCHWDRDHRRYFYVNEQSGESQWEFPDGEEEEEES [S10D],-0.465 ± 0.11
19,EINATPKGWGCHWDRDHRRYFYVNEQSGESQWEFPDGEEEEEES [S10G],-0.528 ± 0.095
20,EINATPKGWRCHWDRDHRRYFYVNEQSGESQWEFPDGEEEEEES [S10R],-0.265 ± 0.085

row,Variant,abundance fitness
1,EINATPKGWSCHWDRDHRQYFYVNEQSGESQWEFPDGEEEEEES [R19Q],-0.092 ± 0.11
2,EINATPKGWSCHWDRDHRRYFYVNEQSGESQWPFPDGEEEEEES [E33P],-0.59 ± 0.083
3,EINATPKGWSCHWDRDHRRYFYVNEQSGESQWVFPDGEEEEEES [E33V],-0.456 ± 0.068
4,EINATPKGWSCHWDRDHRRYFYVNEQSGESQWHFPDGEEEEEES [E33H],-0.408 ± 0.17
5,EINATPKGWSCHWDRDHRRYFYVNEQSGESQWEFRDGEEEEEES [P35R],-0.661 ± 0.065
6,EINPTPKGWSCHWDRDHRRYFYVNEQSGESQWEFPDGEEEEEES [A4P],0.086 ± 0.29
7,EINATPKGWSCHADRDHRRYFYVNEQSGESQWEFPDGEEEEEES [W13A],-0.571 ± 0.068
8,EINATPKGWSCHYDRDHRRYFYVNEQSGESQWEFPDGEEEEEES [W13Y],-0.189 ± 0.25
9,EINATPKGWSCHWDRDHRRYFYVNEQSGESQWEFPDGEEEEAES [E42A],0.04 ± 0.061
10,EINATPKGWSCKWDRDHRRYFYVNEQSGESQWEFPDGEEEEEES [H12K],-0.179 ± 0.097
11,EINATPKGWSCHWDRDHRREFYVNEQSGESQWEFPDGEEEEEES [Y20E],-0.488 ± 0.078
12,RINATPKGWSCHWDRDHRRYFYVNEQSGESQWEFPDGEEEEEES [E1R],-0.186 ± 0.23
13,EINATPKGGSCHWDRDHRRYFYVNEQSGESQWEFPDGEEEEEES [W9G],-0.423 ± 0.058
14,EINATPKGYSCHWDRDHRRYFYVNEQSGESQWEFPDGEEEEEES [W9Y],-0.534 ± 0.16
15,EINATPKGDSCHWDRDHRRYFYVNEQSGESQWEFPDGEEEEEES [W9D],-0.742 ± 0.18
16,EINATPKTWSCHWDRDHRRYFYVNEQSGESQWEFPDGEEEEEES [G8T],-0.843 ± 0.27
17,EINATPKGWSCHWDRDHRRYFYVAEQSGESQWEFPDGEEEEEES [N24A],-0.62 ± 0.068
18,EINATPKGWSCHWDRDHRRYFYVVEQSGESQWEFPDGEEEEEES [N24V],-1.08 ± 0.072
